Numbering of substitutions follows the chain as printed.
Tests used:
[1] = biological target: T1, tCD45RO_WT (truncated, N-terminally myc-tagged wild-type CD45RO construct) (human, UniProt P08575 1-604); assay: staining of cells expressing truncated CD45 constructs with his-tagged scFv/antibody clones
T1 construct: Expressed from lentivirus on CD45-negative NALM6 cells; also called WT CD45; CD45 WT
T1 sequence: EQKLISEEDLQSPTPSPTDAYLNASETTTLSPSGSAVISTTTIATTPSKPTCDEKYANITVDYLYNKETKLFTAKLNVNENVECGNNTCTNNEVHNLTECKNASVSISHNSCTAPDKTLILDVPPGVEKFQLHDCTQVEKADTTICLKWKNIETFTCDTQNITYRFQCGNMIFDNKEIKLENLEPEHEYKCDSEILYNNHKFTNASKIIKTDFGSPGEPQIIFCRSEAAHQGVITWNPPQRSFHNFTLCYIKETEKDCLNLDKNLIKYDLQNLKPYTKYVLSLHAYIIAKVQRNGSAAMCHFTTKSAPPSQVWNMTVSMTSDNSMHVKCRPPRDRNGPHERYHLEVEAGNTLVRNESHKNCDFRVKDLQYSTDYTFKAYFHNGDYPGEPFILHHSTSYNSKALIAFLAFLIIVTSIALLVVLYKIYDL
Excerpt: (§1) With the information obtained from the crystal structure (and given that FN domains are evolutionary conserved and stable structures), and without wishing to be bound by theory, it was hypothesized that the subdomains which are recognized by the CAR45-T cells can be narrowed down by sequentially truncating the extracellular domain. The constructs to generate the truncated CD45 constructs were de novo synthesized (FIG. 24A). To verify surface expression of the truncated CD45 constructs, all constructs were myc-tagged at the N-terminus to allow surface staining against the truncated CD45 expressing cell using anti-Myc antibodies followed by readout via flowcytometry. Cells expressing the truncated CD45 constructs were stained with recombinantly expressed, his-tagged scFv/antibody clones from which the CARs were made off. Positive staining for the his tag therefore only occurs when the scFv/antibody clones can bind truncated CD45.

[2] = biological target: T2, tCD45_RO_T8A (CD45RO with Thr8 changed to alanine) (human, UniProt P08575 1-604); assay: antibody staining (figure cited in the text as FIG. 42, left)
T2 construct: The entry already carries the substitution, the signal peptide and the myc tag
T2 sequence: T1 sequence with T18A

[3] = biological target: T1, tCD45RO_WT (truncated, N-terminally …); assay: flow cytometry, his-tag staining of cells expressing myc-tagged truncated CD45 constructs
Excerpt: as §1

B1: recombinantly expressed, his-tagged scFv/antibody clone 9.4 (scFv, V domains shown)
VH: QVQLQQLGAELARPGASVKMSCKASGYTFTSYSIQWVKQRPGQGLEWIGYINPSSGYIKYNQHFRDRATLTADRSSSTAYMQLSSLTSEDSAVYYCARGNSGSFDYWGQGTTLTVSS
VL: DIVMTQAAPSVPVTPGESLSISCRSSKSLLHSSGITYLYWFLQRPGQSPQLLIYRMSNLASGVPDRFSGSGSGTAFTLRISRVEAEDVGVYYCMQHLEYPFTFGGGTKLEIK
notes: Soluble his-tagged scFv/antibody clone used to stain cells expressing truncated CD45; also called 9.4 scFv
[1]
  binding result: binds

B2: recombinantly expressed, his-tagged scFv/antibody clone Gap8.3 (scFv, V domains shown)
VH: EVQLQQSGPELVKTGASVKISCKASGYSFTGYFIHWVKQSHGKSLEWIGYISCYNGATSYNQKFKGKATFTVDTSSSTAYMQFNSVTSEDSAVYYCVRNYYGNLDAMDYWGQGTSVTVSS
VL: DIVMTQSHKFMSTSVGDRVSITCKASQDVSTAVAWYQQKPGQSPKILIYSASYRYTGVPDRFTGSGSGTDFTFTISSVQAEDLAVYYCQQHYSTPRTFGGGTKLEIK
notes: Soluble his-tagged scFv/antibody clone used to stain cells expressing truncated CD45; also called Gap8.3 scFv
[1]
  binding result: binds

B3: recombinantly expressed, his-tagged scFv/antibody clone 4B2 (scFv, V domains shown)
VH: GVQLQESGAELARPGASVKMSCKASGYTFTSYTMQWVKQRPGQGLEWIGYINPSSGYIKYNQKFKDKVTLTADKSSTTAYMQLSRLTSEDSAVYYCARRGSYFFDFWGQGTSVTVSS
VL: DIVITQDELSNPVTSGESVSISCRSSKSLLYKDGKTYLNWFLQRPGQSPQLLIYLMSTRASGVSDRFSGSGSGTDFTLEISRVKAEDVGVYYCQQLVEYPFTFGGGTKLEVK
notes: Soluble his-tagged scFv/antibody clone used to stain cells expressing truncated CD45; also called 4B2 scFv
[1]
  binding result: binds

B4: antibody clone UCHL-1 (CD45RO-specific) (antibody, V domains shown)
VH: QITLKESGPGILQPSQTLSLTCSFSGFSLTTYGIGVGWIRQPPGKGLEWLTHIWWNDNKYYNTALRSRLTISKDSSNNQVLLKIANVDTADTATYYCLYGYTYWGQGTLVTVSA
VL: DVVMTQTPLSLPVSLGDQASISCRSSQSLLYSNGNTYLHWYLQKPGQSPKLLIYKLSNRFSGVPDRFSGSGSGTDFTLKISRVEAEDLGVYFCSQSTHVPWTFGGGTKLEIK
notes: also called muUCHL
[2]
  binding result: no binding

B5: recombinantly expressed, his-tagged scFv from the BC8 clone (scFv, V domains shown)
VH: QVQLVESGGGLVQPGGSLKLSCAASGFDFSRYWMSWVRQAPGKGLEWIGEINPTSSTINFTPSLKDKVFISRDNAKNTLYLQMSKVRSEDTALYYCARGNYYRYGDAMDYWGQGTSVTVS
VL: DIVLTQSPASLAVSLGQRATISCRASKSVSTSGYSYLHWYQQKPGQPPKLLIYLASNLESGVPARFSGSGSGTDFTLNIHPVEEEDAATYYCQHSRELPFTFGSGTKLEIK
notes: Soluble his-tagged scFv used to stain cells; also called BC8 scFv
[3]
  binding result: binds

From US20250041339A1 (University of Pennsylvania, published 2025)
